Assay results as given in publication doi:10.1101/2020.07.08.161463 (bioRxiv, 2020).

Biological target: the molecule itself
Test: SEC-MALS

B1: G domain of SEPT7 (domain or fragment)
chain: YRKSVKRGFEFTLMVVGESGLGKSTLINSLFLTDLYSPEYPGPSHRIKKTVQVEQSKVLIKEGGVQLLLTIVDTPGFGDAVDNSNCWQPVIDYIDSKFEDYLNAESRVNRRQMPDNRVQCCLYFIAPSGHGLKPLDIEFMKRLHEKVNIIPLIAKADTLTPEECQQFKKQIMKEIQEHKIKIYEFPETDDEEENKLVKKIKDRLPLAVVGSNTIIEVNGKRVRGRQYPWGVAEVENGEHCDFTILRNMLIRTHMQDLKDVTNNVHYENYRSRKLAAVT
For B1, the “stoichiometry N” value was 2.
